Measurements published in the nanobody polyreactivity screen of Harvey et al. (2022).

Experiment: yeast display, Sf9 membrane polyspecificity reagent, FACS + sequencing; frameworks hold sequencing errors
Outline: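 A nanobody's polyreactivity label depends on the gate it was sorted from. Yeast display cells were stained with 10% biotinylated, detergent-solubilized Sf9 membrane reagent for 1 hour at 4 °C, enriched on streptavidin microbeads and sorted by FACS. The low and high (top ~1%) gates were set on anti-HA fluorescence for expression and streptavidin fluorescence for reagent binding.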

Row | Sequence | polyreactivity (PSR sort gate)
1 | QVQLVESGGGLVQAGGSLRLSCAASGFTFSRNVMGWYRQAPGKERELVADITLSGASTYYADSVKGRFTISRDNAKNTVYLQMNSLKPEDTAVYYCAAEPYHWRWGWRHDYWGQGTQVTVSS | low polyreactivity
2 | QVQLVESGGGLVQAGGSLRLSCAASGFTFSRYAMGGYRQAPGKERELVAAISIRGGNTYYADSVKGRFTISRDNAKNTVYLQMNSLKPEDTAVYYCAAAGRYLRYAYWGQGTQVTVSS | high polyreactivity
3 | QVQLVESGGGLVQAGGSLRLSCAASGFTFSRYAMGWYRQAPGKERELVAAIDDGGSTYYADSVKGRFTISRDNAKNTVYLQMNSLKPEDTAVYYCNARGYGTLNVRRERMDYWGQGTQVTVSS | high polyreactivity
4 | QVQLVESGGGLVQAGGSLRLSCAASGFTFSRYAMGWYRQAPGKERELVAAITRGGSTNYADSVKGRFTISRDNAKNTVYLQMNSLKPEDTAVYYCAVRIRYSTNAYYYWGQGTQVTVSS | high polyreactivity
5 | QVQLVESGGGLVQAGGSLRLSCAASGFTFSSNAMGWSRPAPGKERELVAGITWSGGSTYYADSVKGRFTISRDNAKNTVYLQMNRLKPEDTAVYYCNFRYNASQYDYVYWGQGTQVTVSS | low polyreactivity
6 | QVQLVESGGGLVQAGGSLRLSCAASGFTFSSNAMGWYRQAPGKERELVAAISRGGRTYYADSVKGRFTISRDNAKNTVYLQMNSLKPEDTAVYYCATDYVYRYDYWGQGTQVTVSS | high polyreactivity
7 | QVQLVESGGGLVQAGGSLRLSCAASGFTFSSNAMGWYRQAPGKERELVAVIDSGDITNYADSVKGRFTISRDYAKNTVYLQMNSLKPEDTAVYYCAADSYSYFTDDHGYWGQGTQVTVSS | high polyreactivity
8 | QVQLVESGGGLVQAGGSLRLSCAASGFTFSSYDMGWYRQAPGKDRDLVAAIDFIDGSTYYADSVKGRFTISRDNAKKTVYLQKNSLKPEDTAVYYCAADPVFKVELWPVRVRVDYWGQGTQVTVSS | low polyreactivity
9 | QVQLVESGGGLVQAGGSLRLSCAASGFTFSSYVMGWYRQAPGKERELVAAISGSGGSTYYADSVKGRFTISRDNAKNTVYLQMNSLKPEDTAVYYCAAVRRVGPTSYYYWGQGTQVTVSS | high polyreactivity
10 | QVQLVESGGGLVQAGGSLRLSCAASGFTFSTNAMGWYRQAPGKERELVAAISRGGSTNYADSVKGRFTISRDIAKNTVYLQMNSLKPEDTAVYYCNAYQSPDEEEYYWGQGTQVTVSS | low polyreactivity
11 | QVQLVESGGGLVQAGGSLRLSCAASGFTFSTYAMGWYRPAPGKERELGAAISRSGGSTYYADSVKGRFTISRDNAKNTVYLQMNSLKPEDTAVYYCAADGLRRESSYYYWAQGTQVTVSS | high polyreactivity
12 | QVQLVESGGGLVQAGGSLRLSCAASGFTFSVNAMGWYRQAPGKERELVAAITWSGGSTYYADSVKGRFTISRDNAKNTDYLQMNSLKPEDTAVFYCNARAQSSWGFWYDYWGQGTQVTVSS | high polyreactivity
13 | QVQLVESGGGLVQAGGSLRLSCAASGFTFSVYTMGWYRQAPGNERELVAALRVSSGGTFYADSVKGRFTISRDNAKNTVYLQRNSLKPEDTAVYYCAVDRYTYDPIFSVVRRYDYWGQGTQVTVSS | high polyreactivity
14 | QVQLVESGGGLVQAGGSLRLSCAASGFTFSYNAMGWYRPAPGKERELVAVITKSGGSTYYADSVKGRFTISRDNAKNTVYLQMNSLKPEDTAVYYCNRQIKKLLTTHYYWGQGTQVTVSS | high polyreactivity
15 | QVQLVESGGGLVQAGGSLRLSCAASGFTFSYNAMGWYRQAPGKERELVAVIKSSGGRTYYADSVKGRFTISRDNAKNTVYLQMNSLKPEDTAVYYCNAVYLQHRYRMYYWGQGTQVTVSS | high polyreactivity
16 | QVQLVESGGGLVQAGGSLRLSCAASGFTFSYNAMGWYRQAPGKERELVAVINSSGGRTYYADSVKGRFTISRDNAKNTVYLQMNSLKPEDTAVYYCAARPVLAKYYYWGQGTQVTVSS | high polyreactivity
17 | QVQLVESGGGLVQAGGSLRLSCAASGFTFSYNTMGWYRQAPGKERELVAAISRSGGRTYYADSVKGRFTISRDNAKNTVYLQMNSLKPEDTAVYYCARYSVTGYGANSGPEMDYWGQGTQVTVSS | high polyreactivity
18 | QVQLVESGGGLVQAGGSLRLSCAASGFTFSYYALGWYRQAPGKERELVAVISDRGGITYYADSVKGRFTISRDNAKNTVYLQMNSRKPEDTAVYYCAAQNPRYNYRYYYWGQGTQVTVSS | low polyreactivity
19 | QVQLVESGGGLVQAGGSLRLSCAASGFTFSYYAMGWYRPAPGKERELVAAITSGGSTYYADYVKGRFTISRDNAKNTVYLQMNSLKPEDTAVYYCNADGWYYPTDDYWGQGTQVTVSS | low polyreactivity
20 | QVQLVESGGGLVQAGGSLRLSCAASGFTFSYYAMGWYRQAPGKERELVAAISFNGGRTYYADSVKGRFTISRDNAKNTVYLQMISLKPEDTAVYYCAARSLRPETLGDYWGQGTQVTVSS | high polyreactivity
21 | QVQLVESGGGLVQAGGSLRLSCAASGFTFSYYAMGWYRQAPGKERELVAAISGSGTRTYYADSVKGRFTISRDNAKNTVYLQMNSLKPEDTAVYYCAADLYVTYDYWGQGTQVTVSS | high polyreactivity
22 | QVQLVESGGGLVQAGGSLRLSCAASGFTFSYYAMGWYRQAPGKERELVAAISSGGSTYYADSVKGRFTISRDNAKNTVYLQMNSLKPEDTAVYYCNVLNYSSRHYLFSYDYWGQGTQVTVSS | high polyreactivity

Row | Sequence | polyreactivity (PSR sort gate)
23 | QVQLVESGGGLVQAGGSLRLSCAASGFTFTAYAMGWYRPAPGKERELVAAISYRGGRTNYAYSVKGRFTISRDNAKNTVYLQMNSLKPEDTAVYYCAARPRISTREMDYWGQGTQVTVSS | high polyreactivity
24 | QVQLVESGGGLVQAGGSLRLSCAASGFTFTAYAMGWYRQAPGKERELVAAINWSGSRTYYADSVKGRFTISRDHAKNTVYLQMNSLKPEDTAVYYCNTATSKSSYRHYDYWGQGTQVTVSS | high polyreactivity
25 | QVQLVESGGGLVQAGGSLRLSCAASGFTFTAYAMGWYRQEPGKERELVAAITGTGGSTKYADSVKGRFTISRDNATNTVYLQMNSLKPEDTAVYYCAKRYRLRGRYDYWGQGTQVTVSS | high polyreactivity
26 | QVQLVESGGGLVQAGGSLRLSCAASGFTFTDYAMGWYRQAPGKERELVAAITSGDSTYYADSVKGRFTISRDNAKNTVYLQMNSLKPEDTAVYYCNKLRRSPNSQYYYWGQGTQVTVSS | high polyreactivity
27 | QVQLVESGGGLVQAGGSLRLSCAASGFTFTFNAMGWYRQEPGKEREFVAAITWSGGSTYYADSVKGRFTISRDNAKNTVYLQMNSLKPEDTAVYYCAARLYRSFTFNYWGQGTQVTVSS | high polyreactivity
28 | QVQLVESGGGLVQAGGSLRLSCAASGFTFTGYAMGWYRQAPGKERELVAAITRGGGSTYYADSVKGRFTISRDNAKNTVYLQMNSLKPEDTAVYYCAAQRSRLIRISSPYYGHDYWGQGTQVTVSS | low polyreactivity
29 | QVQLVESGGGLVQAGGSLRLSCAASGFTFTGYAMGWYRQAPGKERELVAVISETGGSTYADSVKGRFTISRDNAKNTVYLQMNSLKPEDTAVYYCNARSGYYLRYYDYDYWGQGTQVTVSS | low polyreactivity
30 | QVQLVESGGGLVQAGGSLRLSCAASGFTFTHYAMGWYRQAPGKERELVAAITDTGGGTYYADSVKGRFTISRDTAKNTVYLQMNSLKPEDTAVYYCAKPTSYRGYYSWGQGTQVTVSS | high polyreactivity
31 | QVQLVESGGGLVQAGGSLRLSCAASGFTFTKYAMGWYRQAPGKERELVAAITSGTSTYYADSVKGRFTISRDNAKYTVYLQMNSLKPEVTAVYYCAAPLYGRYSYGYWGQCTQVTVSS | high polyreactivity
32 | QVQLVESGGGLVQAGGSLRLSCAASGFTFTPYAMGWYRQAPGKERELVAAITSTGGSTYYADSVKGRFTISRHNAKNTVYLQMNSLKPEDAAVYYCNAATPYSWGYRRGYWGQGTQVTVSS | high polyreactivity
33 | QVQLVESGGGLVQAGGSLRLSCAASGFTFTQYAMGWYRPAPGKECELVAAISRSGGSTYYADSVKGRFTISRDNAKNTVYLQMTSLKPEDTPVYYCAADWRFRYDYWGQGTQVTVSS | high polyreactivity
34 | QVQLVESGGGLVQAGGSLRLSCAASGFTFTRNAMGWYRQAPGKERELVAAISKRGGTTYYADSVKGRFTISRDNAKNTVYLQMNSLKPEDTAVYYCAKDGGITGGYWGQGTQVTVSS | high polyreactivity
35 | QVQLVESGGGLVQAGGSLRLSCAASGFTFTRYAMGWYRQAPGKERELVAAIRWSGGRTYYADSVKGRFTISRDNAKNTVYLQMNSLKPEDTAVYYCYAVFYDPRREYDYWGQGTQVTVSS | high polyreactivity
36 | QVQLVESGGGLVQAGGSLRLSCAASGFTFTRYAMGWYRQAPGKERELVAAITTNSGSRTYYADSVKGRFTISRDNAKNTVYLQMNSLKPEDTAVYYCAADGPVVRGYYWGQGTQVTVSS | high polyreactivity
37 | QVQLVESGGGLVQAGGSLRLSCAASGFTFTRYAMGWYRQAPGKERELVAVITYSGDTSYADSVKGRFTISRDNAKNTVYLQMNSLKPEDTAVYYCAVERAYYSDTGRYGYDYWGQGTQVTVSS | high polyreactivity
38 | QVQLVESGGGLVQAGGSLRLSCAASGFTFTSFAMGWYRQAPGKERELVAAISARGGRTNYADSVKGRFTISRDNAKNTVYLQKNSLKPEDTAVYYCAADGFRAAYLYDYWGQGTQVTVSS | high polyreactivity
39 | QVQLVESGGGLVQAGGSLRLSCAASGFTFTYNTMGWYRQAPGKERELVAAISRSGGSTYYADSVKGRFTISRDNAKNTVYLQMNSLKPEDTAVYYCAKQRRDYNGGYWGQGTQVTVSS | high polyreactivity
40 | QVQLVESGGGLVQAGGSLRLSCAASGFTFTYYAMGWYRQAPGKERELVAAISWSGDSTYYADSVKGRFTISRDNAKNTVYLQMNSLKPEDTAVYYCATEYSHTYDYWGQGTQVTVSS | low polyreactivity
41 | QVQLVESGGGLVQAGGSLRLSCAASGFTFTYYAMGWYRQAPGKERELVAVISSAGSTYYADSVKGRFTISRDNAKNTVYLQMNSLKPEDTAVYYCNAVGRYYSSGRYGHWGQGTQVTVSS | high polyreactivity
42 | QVQLVESGGGLVQAGGSLRLSCAASGFTFTYYTMGWYRPAPGKERELVAGISRSGGSTYYADSVKGRFTISRDNAKNTVYLQMNSLKPEDTAVYYCFPGKTRLYGYWGQGTQVTVSS | high polyreactivity
43 | QVQLVESGGGLVQAGGSLRLSCAASGFTFTYYVMGWYRQAPGKDRELVAAISQGGGSTYYADSVKGRFTISRDNAKNTVYLQMNSLKPEDTAVYYCAARRVGYGTDRYYGYDSWGQGTQVTVSS | high polyreactivity
